Laboratory results published in US20240238445A1, “INHIBITORS AND USES THEREOF” (NEURACLE SCIENCE CO., LTD., priority 2021, published 2024).

Experiments:
[1] = target: binding of FAM19A5 protein to full-length ectodomain of the LRRC4B protein (amino acids 36-576 of SEQ ID NO: 2) (Homo sapiens, UniProt Q7Z5A7); experiment: Competitive inhibition assay, plate coated with full-length ectodomain of LRRC4B (amino acids 36-576); conditions: for inhibition of FAM19A5 binding to coated full-length LRRC4B ectodomain protein (in words): increasing concentrations, FAM19A5 5 ng/mL, 100 nM coat
Outline: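 Wells are coated with 100 nM LRRC4B ectodomain (aa 36-576), and 5 ng/mL recombinant FAM19A5 is added with competitor: LRRC4B deletion constructs at increasing concentrations, or synthetic peptides at 20 nM. After incubation at 37 °C, bound FAM19A5 is detected with HRP-conjugated anti-FAM19A5 (1-65) antibody.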

[2] = test system: mouse primary cortical neurons; experiment: Neurite growth of mouse primary cortical neurons in vitro; type: cell-based; conditions: for neurite growth / neurite outgrowth: treated days 1 and 2, assessed day 3, anti-beta-tubulin III, LRRC4B fragment 0.006 to 60 nM, versus control
Method: Next, primary cortical neurons (day 1 postnatal) were cultured in vitro with varying concentrations (0.006 to 60 nM) of the LRRC4B (453-576) protein fragment (i.e., amino acid residues 453-576 of SEQ ID NO: 2; SEQ ID NO: 7), and then at day 3 post-initial culture, the effect on neurite growth was assessed by immunostaining the cells with anti-beta-tubulin III antibody. Cells cultured with DMSO (“Veh”) were used as control.
Mouse hippocampal neurons were treated with LRRC4B peptides at 1 and 2 DIV to determine neurite growth. It was measured by using 3 different parameters, which are total neurites length, number of primary and secondary neurites. After the neurons were stained with beta-tubulin III at 3 DIV, neurites length and branch points were measured using Fiji (Image J, NIH, Bethesda). Individual neurons were selected by hand and these parameters were counted using the Simple neurite tracer plugin. Mouse spinal motor neurons sampled at postnatal day 1 were treated with 10 nM of NS101 and LRRC4B-peptides (dFB-dWY-JM31 and dFB-DY-JM31) at 1 and 2 DIV and immunostained with Tau-5 antibody at 3 DIV. Total neurite length and number of somas in images were measured by Neurphology Image J plugin.

[3] = day 3, compared to the control group

Sequence of binding of FAM19A5 protein to full-length ectodomain of the LRRC4B protein (amino acids 36-576 of SEQ ID NO: 2) (Q7Z5A7 44-132): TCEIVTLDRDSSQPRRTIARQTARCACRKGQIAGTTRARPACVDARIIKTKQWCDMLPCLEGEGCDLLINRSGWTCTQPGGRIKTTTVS

Molecule	inhibition of interaction between FAM19A5 and the coated LRRC4B protein fragments (in words) ([1]; 20 nM peptide, statement covers both coats, LRRC4B (36-576) and LRRC4B (453-576))	Inhibition rate (%) LRRC4B (amino acids 36-576)-hFc ([1]; Table 8, 20 nM peptide, FAM19A5 5 ng/ml) [%]	Inhibition rate (%) LRRC4B (amino acids 36-576)-hFc ([1]; Table 9, deletion variants, 20 nM peptide, FAM19A5 5 ng/ml) [%]	Inhibition rate (%) LRRC4B (amino acids 36-576)-hFc ([1]; Table 10, alanine/asparagine mutants) [%]	neurite growth / neurite outgrowth [2]	inhibition of FAM19A5 binding to coated full-length LRRC4B ectodomain protein (in words) [1]	neurite length [2, 3]	number of branching points [2, 3]	number of primary and secondary neurites [2, 3]
GYTYFTTVTVETLETQPGEE [FB-20]	significantly decreased the interaction	77.0	84.3	77.0	Increased neurite outgrowth				
LRRC4B (498-576): LRRC4B ectodomain fragment, amino acids 498-576 of SEQ ID NO: 2 (protein) QPGEEALQPRGTEKEPPGPTTDGVWGGGRPGDAAGPASSSTTAPAPRSSRPTEKAFTVPITDVTENALKDLDDVMKTTK						much inferior in their ability to inhibit the interaction			
LRRC4B (453-576): LRRC4B ectodomain fragment, amino acids 453-576 of SEQ ID NO: 2; FLAG-tagged or hFc-fused (protein, FLAG tag or human Fc, FLAG-tagged or hFc-fused) VSAVDPVAAGGTGSGGGGPGGSGGVGGGSGGYTYFTTVTVETLETQPGEEALQPRGTEKEPPGPTTDGVWGGGRPGDAAGPASSSTTAPAPRSSRPTEKAFTVPITDVTENALKDLDDVMKTTK					increased neurite growth in a dose-dependent manner	able to inhibit FAM19A5 protein from binding	increased neurite length	increased number of branching points	increased number of primary and secondary neurites
